{"source": "patent US20150274831A1", "about": "(Hoffmann-La Roche, published 2015)", "molecular_target": "CSF-1R on cynomolgous monocytes (native receptor of CD14-enriched peripheral blood monocytes) (cynomolgous)", "assay": "cell-based or functional assay", "data": [{"binder": "Mab 2F11 (antibody, V domains shown) VH: QVQLKESGPGLVAPSQSLSITCTVSGFSLTTYDISWIRQSPGKGLEWLGVIWTDGGTNYNSPFMSRLSIRKDNSKSQVFLKMNRLQTDDTAIYYCVRDQRLYFDVWGAGTTVTVSS VL: NIVMTQSPKSMSMSVGERVTLNCKASEDVNTYVSWYQQQPEQSPKLLIYGASNRYTGVPDRFTGGGSTTDFTLTISSVQAEDLADYFCGQSFSYPTFGTGTKLEIK", "values": [{"measurement": "% inhibition (of survival) = (100% - % survival) (CellTiterGlo; cynomolgous monocytes with 150 ng/ml huCSF-1; 5 µg/ml antibody)", "result": 96, "unit": "%"}, {"measurement": "% survival (CellTiterGlo; cynomolgous monocytes with 150 ng/ml huCSF-1; 5 µg/ml antibody)", "result": 4, "unit": "%"}]}, {"binder": "Mab 1G10 (antibody, V domains shown) VH: RVQLKESGPGLVAPSQSLSITCTVSGFSLTSYDISWIRQSPGKGLEWLGVIWSGGGTNYNSPFMSRLRISKDDSRSQVFLKVNRLQTDDTAIYYCVRDLRLYFDVWGAGTTVTVSS VL: KIVMTQSPKSMSVSVGERVSLSCKASEDVGTYVSWYQQKPEQSPKLLIYGSSNRYTGVPDRFTGSGSATDFTLTISSVQAEDLADYSCGQSFTYPTFGTGTKLEIK", "values": [{"measurement": "% inhibition (of survival) = (100% - % survival) (CellTiterGlo; cynomolgous monocytes with 150 ng/ml huCSF-1; 5 µg/ml antibody)", "result": 98, "unit": "%"}, {"measurement": "% survival (CellTiterGlo; cynomolgous monocytes with 150 ng/ml huCSF-1; 5 µg/ml antibody)", "result": 2, "unit": "%"}]}, {"binder": "Mab 2E10 (antibody, V domains shown) VH: QVQLKESGPGLVAPSKSLSITCTVSGSSLDSFDISWIRQSPGKGLEWLGVIWTGGGTNYNSGFMSRLRITKDNSKSQVLLKMNSLQSDDTAIYYCVRDPRLYFDVWGAGTTVTVSS VL: NIVMTQSPKSMSMSVGERVTLSCKASEDVVTYVSWYQQKPDQSPKLLIYGASNRYTGVPDRFTGSGSATDFTLTISSVQAEDLADYYCGQTFSYPTFGTGTKLEIK", "values": [{"measurement": "% inhibition (of survival) = (100% - % survival) (CellTiterGlo; cynomolgous monocytes with 150 ng/ml huCSF-1; 5 µg/ml antibody)", "result": 83, "unit": "%"}, {"measurement": "% survival (CellTiterGlo; cynomolgous monocytes with 150 ng/ml huCSF-1; 5 µg/ml antibody)", "result": 17, "unit": "%"}]}, {"binder": "Mab 2H7 (antibody, V domains shown) VH: QVQLKESGPGLVAPSKSLSITCTVSGSSLDSFDISWIRQPPGKGLEWLGVIWTGGGTNYNSGFMSRLRISKDNSKSQVFLKMSSLQSDDTAIYYCVRDPRLYFDVWGAGTTVTVSS VL: NIVMTQSPKSMSMSVGERVTLSCKASEDVVTYVSWYQQKPEQSPKLLIYGASNRYTGVPDRFTGSGSATDFTLTISSIQAEDLADYYCGQTFSYPTFGTGTKLEIK", "values": [{"measurement": "% inhibition (of survival) = (100% - % survival) (CellTiterGlo; cynomolgous monocytes with 150 ng/ml huCSF-1; 5 µg/ml antibody)", "result": 92, "unit": "%"}, {"measurement": "% survival (CellTiterGlo; cynomolgous monocytes with 150 ng/ml huCSF-1; 5 µg/ml antibody)", "result": 8, "unit": "%"}]}]}
